B3: Recombinant His-tag PGRN protein (full length progranulin) (ligand)
chain: TRCPDGQFCPVACCLDPGGASYSCCRPLLDKWPTTLSRHLGGPCQVDAHCSAGHSCIFTVSGTSSCCPFPEAVACGDGHHCCPRGFHCSADGRSCFQRSGNNSVGAIQCPDSQFECPDFSTCCVMVDGSWGCCPMPQASCCEDRVHCCPHGAFCDLVHTRCITPTGTHPLAKKLPAQRTNRAVALSSSVMCPDARSRCPDGSTCCELPSGKYGCCPMPNATCCSDHLHCCPQDTVCDLIQSKCLSKENATTDLLTKLPAHTVGDVKCDMEVSCPDGYTCCRLQSGAWGCCPFTQAVCCEDHIHCCPAGFTCDTQKGTCEQGPHQVPWMEKAPAHLSLPDPQALKRDVPCDNVSSCPSSDTCCQLTSGEWGCCPIPEAVCCSDHQHCCPQGYTCVAEGQCQRGSEIVAGLEKMPARRASLSHPRDIGCDQHTSCPVGQTCCPSLGGSWACCQLPHAVCCEDRQHCCPAGYTCNVKARSCEKEVVSAQPATFLARSPHVGVKDVECGEGHFCHDNQTCCRDNRQGWACCPYRQGVCCADRRHCCPAGFRCAARGTKCLRREAPRWDAPLRDPALRQLL
notes: also called rPGRN; His-tagged PGRN; not shown: His tag
B6: Recombinant GBA (glucocerebrosidase; R&D Systems Cat. No. 7410-GH-010) (enzyme, UniProt P04062 40-536, looked up)
chain: ARPCIPKSFGYSSVVCVCNATYCDSFDPPTFPALGTFSRYESTRSGRRMELSMGPIQANHTGTGLLLTLQPEQKFQKVKGFGGAMTDAAALNILALSPPAQNLLLKSYFSEEGIGYNIIRVPMASCDFSIRTYTYADTPDDFQLHNFSLPEEDTKLKIPLIHRALQLAQRPVSLLASPWTSPTWLKTNGAVNGKGSLKGQPGDIYHQTWARYFVKFLDAYAEHKLQFWAVTAENEPSAGLLSGYPFQCLGFTPEHQRDFIARDLGPTLANSTHHNVRLLMLDDQRLLLPHWAKVVLTDPEAAKYVHGIAVHWYLDFLAPAKATLGETHRLFPNTMLFASEACVGSKFWEQSVRLGSWDRGMQYSHSIITNLLYHVVGWTDWNLALNPEGGPNWVRNFVDSPIIVDITKDTFYKQPMFYHLGHFSKFIPEGSQRVGLVASQKNDLDAVALMHPDGSAVVVVLNRSSKDVPLTIKDPAVGFLETISPGYSIHTYLWRRQ
modifications: biotin-labeled (EZ-Link Sulfo-NHS-LC-Biotin) in the solid phase binding assays; unlabeled in SPR
notes: also called GCase; biotin-labeled GBA

Assays:
[1] = biological target: B3; experiment: solid phase binding, PGRN coated, biotin-labeled LIMP2
Description: Solid phase binding: 0.1, 1, 2, and 5 μg/ml PGRN proteins were coated in 96-wells with triplicate wells in PBS for overnight. The plate was washed with 0.1% tween/PBS five times and then blocked with 2% BSA/PBS solution. Two μg BSA, LIMP2 and GBA protein were labeled with biotin followed the protocol of EZ-Link Sulfo-NHS-LC-Biotin and Biotinylation Kits (Thermo Scientific). Biotin-labeled LIMP2, GBA or BSA were added in the plate and incubate for 2 hours. Wash with 0.1% tween/PBS, and coated with streptavidin-HRP (1:2000 dilution) solution for 1 hour. After washing add t h e substrate and stop the reaction with […] H₂SO₄. Read result at UV 450 nm in plate reader.

[2] = biological target: B6; experiment: solid phase binding, Pcgin coated, biotin-labeled GCase, ELISA-based detection
Description: (§1) Pcgin was coated on a 96-well plate and incubated with biotin-labeled GCase, HSP70, and Sortilin (serving as a positive control) respectively. The direct binding was detected by ELISA-based method.
(§2) Pcgin was then expressed in bacteria and purified as a His-tagged protein. The purity was examined by Coomassie Blue staining and confirmed by Western blotting with His probe (FIG. 10). […] Although Pcgin retained GCase and HSP70 binding activity of PGRN, it lacked PGRN's oncogenic activity, including PGRN-activated oncogenic signaling and cell proliferation (data not shown).

[3] = biological target: T1, Recombinant sortilin (R&D Systems Cat. No. 3154-ST-050) (UniProt Q99523 78-755, biotin-labeled in the solid phase binding assay of FIG. 11; unlabeled in SPR); experiment: solid phase binding, Pcgin coated, biotin-labeled sortilin (positive control), ELISA-based detection
T1 construct: also called biotin-labeled Sortilin
T1 sequence (looked up): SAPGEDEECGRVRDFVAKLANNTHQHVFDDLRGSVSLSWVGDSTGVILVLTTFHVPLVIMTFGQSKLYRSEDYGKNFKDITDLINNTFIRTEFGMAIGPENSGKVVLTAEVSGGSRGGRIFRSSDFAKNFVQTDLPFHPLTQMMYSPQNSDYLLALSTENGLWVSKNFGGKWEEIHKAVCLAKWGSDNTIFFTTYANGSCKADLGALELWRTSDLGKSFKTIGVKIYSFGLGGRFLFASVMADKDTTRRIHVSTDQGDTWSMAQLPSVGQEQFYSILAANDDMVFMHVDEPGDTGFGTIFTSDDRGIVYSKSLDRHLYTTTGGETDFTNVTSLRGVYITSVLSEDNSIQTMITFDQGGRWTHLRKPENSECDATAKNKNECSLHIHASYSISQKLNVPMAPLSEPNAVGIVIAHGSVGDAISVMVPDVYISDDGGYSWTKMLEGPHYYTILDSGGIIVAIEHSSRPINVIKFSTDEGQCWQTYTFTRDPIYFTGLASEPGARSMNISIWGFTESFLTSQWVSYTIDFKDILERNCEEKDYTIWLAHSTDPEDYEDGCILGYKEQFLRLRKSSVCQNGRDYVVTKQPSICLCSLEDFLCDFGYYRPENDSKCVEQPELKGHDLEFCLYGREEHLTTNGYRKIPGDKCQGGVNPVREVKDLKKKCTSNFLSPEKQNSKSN
Description: as §1, §2

[4] = biological target: T1, Recombinant sortilin (R&D Systems Cat. …); experiment: SPR, SensiQ Pioneer, sortilin immobilised, PGRN injected (OneStep)
[5] = biological target: HSP70 expressed from a plasmid in transfected 293T cells (UniProt P0DMV8 1-641); experiment: co-IP from co-transfected 293T cells: IP anti-GFP, IB anti-HSP70
Text: (§3) FIG. 8 depicts that Pcgin/ND7 fragment of PGRN has binding motifs for GCase and HSP70. (A) Scheme of Pcgin amino acid structure and its deletion mutants. (B) Co-IP assays for examining the binding of Pcgin and its mutants to GCase and HSP70. 293T cells were transfected with plasmids encoding either GFP fused Pcgin or its mutants, together with plasmids encoding RFP fused GCase and HSP70, and the protein complexes were immunoprecipitated with GFP antibody and probed with RFP or HSP70 antibodies respectively. […] The result is representative of three independent experiments. (C) Structure and sequence of Pcgin/ND7 fragment of PGRN. […] Sequence of Pcgin (SEQ ID NO:4) is shown in the bottom panel. Linker regions and Gm E are highlighted in green and red, respectively. Binding sites of GCase, HSP70, and Sortilin are indicated.

[6] = biological target: T2, RFP-fused GBA (encoded by pDsRed-GBA) (UniProt P04062 40-536); experiment: co-IP from co-transfected 293T cells: IP anti-GFP, IB anti-RFP
T2 construct: also called RFP fused GCase; GCase; not shown: RFP (DsRed) tag
T2 sequence (looked up): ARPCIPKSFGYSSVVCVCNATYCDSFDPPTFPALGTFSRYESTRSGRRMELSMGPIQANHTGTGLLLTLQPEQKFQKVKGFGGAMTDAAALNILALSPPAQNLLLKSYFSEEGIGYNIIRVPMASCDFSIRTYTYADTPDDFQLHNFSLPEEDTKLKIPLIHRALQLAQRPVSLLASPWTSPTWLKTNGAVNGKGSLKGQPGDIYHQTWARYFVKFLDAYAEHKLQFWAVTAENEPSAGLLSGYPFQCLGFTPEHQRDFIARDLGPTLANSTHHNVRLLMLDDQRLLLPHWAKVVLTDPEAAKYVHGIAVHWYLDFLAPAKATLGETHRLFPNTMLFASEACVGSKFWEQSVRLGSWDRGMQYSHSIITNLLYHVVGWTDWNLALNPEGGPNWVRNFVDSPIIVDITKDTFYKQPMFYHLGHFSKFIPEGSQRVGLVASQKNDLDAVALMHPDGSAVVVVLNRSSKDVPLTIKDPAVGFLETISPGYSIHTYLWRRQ
Text: as §3

[7] = biological target: B3; experiment: SPR, SensiQ Pioneer, GBA immobilised, PGRN injected (OneStep)
Description: Surface Plasmon Resonance (SPR): All SPR experiments were done by SensiQ Technologies Inc. (Oklahoma City, Okla.) by using SensiQ Pioneer at a controlled analysis temperature of 25° C., and samples in the instrument sample racks were maintained at 18° C. The running buffer throughout the immobilization and the assay consisted of 10 mM HEPES, 150 mM NaCl, 0.005% Tween 20. Buffer pH was adjusted to pH 7.4, 6.5, 6.0 or 5.5 for individual runs, and for each pH the running buffer was used to prepare PGRN samples and sucrose diffusion standards.
The assay of PGRN was performed with a total of five buffer blank injections and two replicates of 200 nM PGRN, all of which were given a 1 hour dissociation time. The OneStep™ injection was used for this assay to determine kinetic rate constants and the equilibrium dissociation constant from a single gradient inject. Two injections of 3% sucrose in running buffer were performed to serve as a diffusion standard.
Data was analyzed using the QDat Analysis Software (SensiQ Technologies and BioLogic Software). All data were double referenced to a reference channel (channel 2) and buffer blanks. The average signal of the buffer blanks was used to subtract injection artifacts. Referenced SPR data from the analysis channels were model fit to ascertain ka, kd, and KD for the interactions.

HSP70 expressed from a plasmid in transfected 293T cells, sequence (P0DMV8 whole entry, the tested form may be a part): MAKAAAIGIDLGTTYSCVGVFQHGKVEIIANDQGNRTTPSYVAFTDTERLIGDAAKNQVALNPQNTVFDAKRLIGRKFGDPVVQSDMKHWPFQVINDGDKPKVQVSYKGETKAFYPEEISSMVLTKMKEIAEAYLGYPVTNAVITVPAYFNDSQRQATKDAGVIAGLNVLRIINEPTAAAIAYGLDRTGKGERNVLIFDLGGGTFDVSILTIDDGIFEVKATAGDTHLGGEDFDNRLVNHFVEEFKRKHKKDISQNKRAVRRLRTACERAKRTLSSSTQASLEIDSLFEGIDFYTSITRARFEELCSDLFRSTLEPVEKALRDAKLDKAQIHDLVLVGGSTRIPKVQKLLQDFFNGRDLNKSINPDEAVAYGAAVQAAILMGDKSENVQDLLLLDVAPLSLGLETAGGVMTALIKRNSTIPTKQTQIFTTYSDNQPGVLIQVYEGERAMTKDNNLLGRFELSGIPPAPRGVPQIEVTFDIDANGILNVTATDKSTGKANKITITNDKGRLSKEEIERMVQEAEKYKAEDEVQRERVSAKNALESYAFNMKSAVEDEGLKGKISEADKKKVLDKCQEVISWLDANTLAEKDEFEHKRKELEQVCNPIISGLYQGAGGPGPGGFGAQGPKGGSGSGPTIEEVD

B1: Recombinant LIMP2 (lysosomal integral membrane protein 2; R&D Systems Cat. No. 1966-LM-050) (receptor, UniProt Q14108 27-432, looked up)
chain: RVFQKAVDQSIEKKIVLRNGTEAFDSWEKPPLPVYTQFYFFNVTNPEEILRGETPRVEEVGPYTYRELRNKANIQFGDNGTTISAVSNKAYVFERDQSVGDPKIDLIRTLNIPVLTVIEWSQVHFLREIIEAMLKAYQQKLFVTHTVDELLWGYKDEILSLIHVFRPDISPYFGLFYEKNGTNDGDYVFLTGEDSYLNFTKIVEWNGKTSLDWWITDKCNMINGTDGDSFHPLITKDEVLYVFPSDFCRSVYITFSDYESVQGLPAFRYKVPAEILANTSDNAGFCIPEGNCLGSGVLNVSICKNGAPIIMSFPHFYQADERFVSAIEGMHPNQEDHETFVDINPLTGIILKAAKRFQINIYVKKLDDFVETGDIRTMVFPVMYLNESVHIDKETASRLKSMINTT
modifications: biotin-labeled (EZ-Link Sulfo-NHS-LC-Biotin)
notes: also called biotin-labeled LIMP2
- binding result [1]: no binding

B2: Recombinant Pcgin, His-tagged, expressed in bacteria (other)
chain: EKEVVSAQPATFLARSPHVGVKDVECGEGHFCHDNQTCCRDNRQGWACCPYRQGVCCADRRHCCPAGFRCAARGTKCLRREAPRWDAPLRDPALRQLL
notes: also called ND7; PGRN ND7 fragment; not shown: His tag
- binding result [2]: binds
- binding result [3]: binds

Binder: B3
- Kd [4]: 3.67 nM

B4: GFP fused Pcgin/ND7 deletion mutant lacking aa535-539 (RDNRQ) (other)
chain: EKEVVSAQPATFLARSPHVGVKDVECGEGHFCHDNQTCCGWACCPYRQGVCCADRRHCCPAGFRCAARGTKCLRREAPRWDAPLRDPALRQLL
notes: also called ΔRDNRQ; ΔDNRQ; not shown: GFP tag
- binding result [5]: no binding

B5: GFP fused Pcgin/ND7 deletion mutant lacking aa523-534 (other)
chain: EKEVVSAQPATFLARSPHVGVKDVECGRDNRQGWACCPYRQGVCCADRRHCCPAGFRCAARGTKCLRREAPRWDAPLRDPALRQLL
notes: not shown: GFP tag
- binding result [6]: no binding

Binder: B6
- Kd [7]: 0.71 nM
